From patent publication US20250222128A1, “ANTIBODY DRUG-CONJUGATES TARGETING C-MET AND METHODS OF USE THEREOF” (Zymeworks BC Inc., priority 2022, published 2025) come the findings set out here.

“Also recorded” adds a separate entry of the source.

Common to all, as to assay type: cell-based
Experiment [1] relates to AKT phosphorylation in H441 lung cancer cells. The experiment can be described thus: cMet pathway agonism by Phospho-AKT ELISA. The note with it: 100 nM, up to 60 minutes, FIG. 5B and FIG. 7. The procedure:
(§1) cMet pathway agonism of the anti-cMet antibody variant v17427 (HetFc, unmodified hinge) and ADCs comprising variant v17427 stochastically cysteine-conjugated to Drug-Linker 001 or MCvcPABC-MMAE at DAR 4 was assessed by cell proliferation and ELISA to measure for AKT phosphorylation as a downstream indicator of cMET activation.
(§2) Phospho-AKT ELISA: Briefly, H441 or H596 lung cancer cells were detached with Cell Dissociation Buffer, seeded in 24-well tissue culture plates with RPMI-1640+10% FBS at a density of 50,000 cells/well, and incubated overnight (37° C., 5% CO2). Cells were then serum starved overnight (37° C., 5% CO2) by replacing the complete growth medium with serum-free RPMI-1640. […] Lysate protein concentration was assessed by a BCA protein assay (Thermo Fisher Scientific Inc., Cat. No. 23223 and 23224). Phospho-AKT levels in 10 μg of lysate was assessed using the PathScan® Phospho-Akt1 (Ser473) Sandwich ELISA Kit (Cell Signaling Technology, Cat. No. 7160C) as per manufacturer's instructions. Absorbance at 450 nm was measured using a Synergy™ H1 microplate (BioTek Instruments, Winooski, VT). Fold AKT phosphorylation was calculated by subtracting background A450 nm signal from all wells using signal blank wells, and then normalizing to the A450 nm signal of untreated cells at each corresponding timepoint. […]
(In general: In an ELISA, binding on a coated surface is turned into a signal by an enzyme label.)

In experiment [2] the test system is AKT phosphorylation in H596 lung cancer cells. The experiment can be described thus: cMet pathway agonism by Phospho-AKT ELISA. Particulars: 100 nM, up to 60 minutes, FIG. 5A. The procedure:
as §1, §2

The next experiment relates to H596 lung cancer cells. The experiment can be described thus: cMet pathway agonism by cell proliferation. Particulars: serum starved cells; titration of test article; 6 days; FIG. 4 and FIG. 6. Here is the method: as §1
Cell proliferation: Briefly, H596 lung cancer cells were serum starved overnight (37° C., 5% CO2) by replacing the complete growth medium with serum-free RPMI-1640 (Thermo Fisher Scientific Inc., Waltham, MA; Cat. No. A1049101). Cells were then detached with Cell Dissociation Buffer (Thermo Fisher Scientific Inc., Cat. No. 13151014), resuspended in RPMI-1640 supplemented with 1% FBS (v/v) (Thermo Fisher Scientific Inc., Cat. No. 12483-020) and seeded in 384-well tissue culture plates at a density of 1,000 cells/well. […] After incubation, CellTiter-Glo® reagent (Promega Corporation, Madison, WI; Cat. No. G7570) was spiked in all wells and luminescence corresponding to ATP present in each well was measured using a Synergy™ H1 microplate (BioTek Instruments, Winooski, VT). Based on untreated cells (no test article added), % viability values were calculated using ATP measurement RLU values (Relative Light Units) and plotted against test article concentration using GraphPad Prism 8 software (GraphPad Software, San Diego, CA). […]

B1: v17429: control antibody, bivalent version of the anti-cMet antibody MetMab (onartuzumab), HetFc (antibody, chains of the INN, looked up, V domains shown)
VH: EVQLVESGGGLVQPGGSLRLSCAASGYTFTSYWLHWVRQAPGKGLEWVGMIDPSNSDTRFNPNFKDRFTISADTSKNTAYLQMNSLRAEDTAVYYCATYRSYVTPLDYWGQGTLVTVSS
VL: DIQMTQSPSSLSASVGDRVTITCKSSQSLLYTSSQKNYLAWYQQKPGKAPKLLIYWASTRESGVPSRFSGSGSGTDFTLTISSLQPEDFATYYCQQYYAYPWTFGQGTKVEIK
modifications: bivalent IgG, HetFc
In the case of B1, the values for the AKT phosphorylation result in experiment [1] and in experiment [2] were “strong AKT phosphorylation; also recorded: strongly induced phosphorylation” and “strong AKT phosphorylation”, respectively. In addition, in the experiment with H596 lung cancer cells, the “H596 proliferation compared to untreated controls” value is “dose-dependent increase in H596 proliferation; also recorded: strong dose-dependent increase in proliferation”.
